Assay results published in patent publication US20260015426A1 (23ANDME, published 2026).

What was measured:
[1] = target: T1, hu-M-IL1RAP construct, positions S21-T367 (extracellular domain of the membrane form of human IL1RAP) (human, UniProt Q9NPH3 21-367); assay: SPR, 37 C
T1 construct: Biotinylated when captured on the Biacore chip
T1 sequence: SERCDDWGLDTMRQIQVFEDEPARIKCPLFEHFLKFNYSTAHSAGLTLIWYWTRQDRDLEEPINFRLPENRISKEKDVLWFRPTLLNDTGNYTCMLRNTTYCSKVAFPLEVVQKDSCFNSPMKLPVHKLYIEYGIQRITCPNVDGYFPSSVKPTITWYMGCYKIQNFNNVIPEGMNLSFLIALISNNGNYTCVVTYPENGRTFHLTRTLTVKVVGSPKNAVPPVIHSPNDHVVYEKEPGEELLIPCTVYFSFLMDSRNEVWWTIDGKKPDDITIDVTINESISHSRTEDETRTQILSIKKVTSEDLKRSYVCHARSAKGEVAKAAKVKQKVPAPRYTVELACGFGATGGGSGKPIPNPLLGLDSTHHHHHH
Method: (§1) Surface plasmon resonance (SPR) analysis was used to determine binding affinity for hu-M-IL1RAP of the purified Fabs containing the selected single, double, and triple mutations in either the VL or VH regions using a BIACORE™ 8K instrument. […] For kinetics measurements, 5 nM biotinylated hu-M-IL1RAP was captured at 10 μL/min to achieve ˜50 response units in the second flow cell (FC2). FC1 was kept as a reference. […] The sensorgrams were recorded and subjected to reference and buffer subtraction before data analysis with the BIACORE® 8K Evaluation Software (version 1.1.1.7442). Association rates (kₒₙ) and dissociation rates (koff) were calculated using a simple one-to-one Langmuir binding model. The equilibrium dissociation constant (KD) was calculated as the ratio of koff/kₒₙ.

[2] = target: T2, cyno-M-IL1RAP construct, positions S21-T367 (cynomolgus monkey, UniProt P59822 21-367 (rhesus entry)); assay: SPR, 37 C
T2 construct: Biotinylated when captured on the Biacore chip; also called cy-M-IL1RAP
T2 sequence: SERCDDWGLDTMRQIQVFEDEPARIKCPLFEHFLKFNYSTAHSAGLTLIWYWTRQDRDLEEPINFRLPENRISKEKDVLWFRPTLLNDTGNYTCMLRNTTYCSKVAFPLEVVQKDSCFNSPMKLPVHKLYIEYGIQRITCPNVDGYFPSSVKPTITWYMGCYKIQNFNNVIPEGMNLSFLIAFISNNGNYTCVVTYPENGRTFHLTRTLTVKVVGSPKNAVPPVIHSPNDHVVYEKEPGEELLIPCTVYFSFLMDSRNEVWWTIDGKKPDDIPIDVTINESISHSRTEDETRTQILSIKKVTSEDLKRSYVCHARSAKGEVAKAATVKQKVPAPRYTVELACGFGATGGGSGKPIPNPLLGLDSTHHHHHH
Method: as §1

[3] = target: T3, human IL1RAP (hu-IL1RAP) on human cells (human, UniProt Q9NPH3 21-570); assay: cell-based or functional assay
T3 sequence: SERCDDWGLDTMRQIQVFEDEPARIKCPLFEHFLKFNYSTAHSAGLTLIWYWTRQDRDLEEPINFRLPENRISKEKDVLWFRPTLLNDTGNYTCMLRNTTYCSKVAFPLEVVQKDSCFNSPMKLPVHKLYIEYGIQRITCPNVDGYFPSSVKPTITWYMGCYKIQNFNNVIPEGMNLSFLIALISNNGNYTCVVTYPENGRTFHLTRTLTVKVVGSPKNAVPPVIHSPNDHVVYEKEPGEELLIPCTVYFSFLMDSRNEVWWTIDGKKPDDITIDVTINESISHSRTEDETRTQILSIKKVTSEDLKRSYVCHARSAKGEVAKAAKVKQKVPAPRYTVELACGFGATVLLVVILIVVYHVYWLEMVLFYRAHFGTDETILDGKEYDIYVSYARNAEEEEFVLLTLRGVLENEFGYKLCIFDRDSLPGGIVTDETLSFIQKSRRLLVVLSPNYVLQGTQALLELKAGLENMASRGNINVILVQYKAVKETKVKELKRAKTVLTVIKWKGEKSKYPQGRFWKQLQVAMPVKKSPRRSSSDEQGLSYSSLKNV

[4] = target: T1, hu-M-IL1RAP construct, positions …; assay: SPR, IgG analyte (apparent), 37 C, pH 6
Method: as §1

[5] = target: T2, cyno-M-IL1RAP construct, positions …; assay: SPR, IgG analyte (apparent), 37 C, pH 6
Method: as §1

[6] = target: T1, hu-M-IL1RAP construct, positions …; assay: SPR, IgG analyte (apparent), 37 C, pH 7.4
Method: as §1

[7] = target: T2, cyno-M-IL1RAP construct, positions …; assay: SPR, IgG analyte (apparent), 37 C, pH 7.4
Method: as §1

[8] = target: T1, hu-M-IL1RAP construct, positions …; assay: SPR, IgG analyte (apparent), pH 7.4, 37 C
[9] = target: T2, cyno-M-IL1RAP construct, positions …; assay: SPR, IgG analyte (apparent), pH 7.4, 37 C

B1: h11C5 variant K13/H3 IgG (YIS) (antibody)
heavy: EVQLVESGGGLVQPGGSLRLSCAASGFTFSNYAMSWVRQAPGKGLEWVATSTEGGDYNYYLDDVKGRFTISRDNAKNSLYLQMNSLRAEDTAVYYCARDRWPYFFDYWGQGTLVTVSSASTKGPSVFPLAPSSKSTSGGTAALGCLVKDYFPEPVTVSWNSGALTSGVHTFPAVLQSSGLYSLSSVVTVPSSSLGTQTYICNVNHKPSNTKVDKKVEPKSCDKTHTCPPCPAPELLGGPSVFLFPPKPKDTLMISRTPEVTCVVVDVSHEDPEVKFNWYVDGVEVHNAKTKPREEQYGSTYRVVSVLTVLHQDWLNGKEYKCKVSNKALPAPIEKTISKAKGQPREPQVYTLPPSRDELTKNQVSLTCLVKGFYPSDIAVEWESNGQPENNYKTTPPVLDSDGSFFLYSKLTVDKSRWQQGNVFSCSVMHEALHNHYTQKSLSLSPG
light: DIQMTQSPSSLSASVGDRVTITCRASENIYSNLAWYQQKPGKSPKLLVYGYKNLADGVPSRFSGSGSGTDYTLTISSLQPEDFATYYCQHFITTPRTFGGGTKVEIKRTVAAPSVFIFPPSDEQLKSGTASVVCLLNNFYPREAKVQWKVDNALQSGNSQESVTEQDSKDSTYSLSSTLTLSKADYEKHKVYACEVTHQGLSSPVTKSFNRGEC
notes: Human IgG1 N297G; also called 11C5-YIS
In the case of B1, the “KD (6)/KD (7.4)” value [1] is reported as 3.3 ratio, the “KD (7.4) ratio to YIS” value [1] is reported as 1 ratio and the “koff (6) ratio to YIS” value [1] is reported as 1 ratio. The “KD (6)/KD (7.4)” value [2] was 2.5 ratio, the “KD (7.4) ratio to YIS” value [2] was 1 ratio and the “koff (6) ratio to YIS” value [2] was 1 ratio. The “HEK-Blue, IL-1β, % inhibition at 100 nM (IgG)” value (“HEK-Blue, IL-1β, % inhibition” for short) [3] was 100%, the “HEK-Blue, IL-1β, IC50 (IgG)” value [3] was 0.251 nM and the “HEK-Blue, IL-33, % inhibition at 100 nM (IgG)” value (from here on “HEK-Blue, IL-33, % inhibition”) [3] was 98%. The “HEK-Blue, IL-33, IC50 (IgG)” value [3] was 0.425 nM, the “HEK-Blue, IL-36α, % inhibition at 100 nM (IgG)” value (from here on “HEK-Blue, IL-36α, % inhibition”) [3] was 100% and the “HEK-Blue, IL-36α, IC50 (IgG)” value [3] was 0.232 nM. The Kd [4] was 0.0705 nM, the koff [4] was 0.00015 s⁻¹ and the kon [4] was 2.12e+06 M⁻¹ s⁻¹. The Kd [5] was 0.0345 nM, the koff [5] was 6.94e-05 s⁻¹ and the kon [5] was 2.01e+06 M⁻¹ s⁻¹. It also gave a Kd [6] of 0.0213 nM, a koff [6] of 3.94e-05 s⁻¹ and a kon [6] of 1.85e+06 M⁻¹ s⁻¹. For the same binder, the Kd [7] was 0.014 nM, the koff [7] was 3e-05 s⁻¹ and the kon [7] was 2.14e+06 M⁻¹ s⁻¹. The Kd [8] was 0.013 nM, the koff [8] was 3.33e-05 s⁻¹ and the kon [8] was 2.55e+06 M⁻¹ s⁻¹. For the same binder, the Kd [9] was 0.0116 nM, the koff [9] was 3.34e-05 s⁻¹ and the kon [9] was 2.87e+06 M⁻¹ s⁻¹.

B2: h11C5 variant K13/H2 IgG (YID) (antibody, V domains shown)
VH: EVQLVESGGGLVQPGGSLRLSCAASGFTFSNYAMSWVRQAPGKGLEWVATVTEGGDYNYYLDDVKGRFTISRDNAKNSLYLQMNSLRAEDTAVYYCARDDWPYFFDYWGQGTLVTVSS
VL: DIQMTQSPSSLSASVGDRVTITCRASENIYSNLAWYQQKPGKSPKLLVYGYKNLADGVPSRFSGSGSGTDYTLTISSLQPEDFATYYCQHFITTPRTFGGGTKVEIKR
notes: Human IgG1 N297G; also called 11C5-YID
In the case of B2, the “KD (6)/KD (7.4)” value [1] is reported as 10 ratio, the “KD (7.4) ratio to YIS” value [1] is reported as 0.66 ratio and the “koff (6) ratio to YIS” value [1] is reported as 2.8 ratio. For the same binder, the “KD (6)/KD (7.4)” value [2] was 4.1 ratio, the “KD (7.4) ratio to YIS” value [2] was 1.7 ratio and the “koff (6) ratio to YIS” value [2] was 3 ratio. The “HEK-Blue, IL-1β, % inhibition” value [3] was 100%, the “HEK-Blue, IL-1β, IC50 (IgG)” value [3] was 0.361 nM and the “HEK-Blue, IL-33, % inhibition” value [3] was 99%. For the same binder, the “HEK-Blue, IL-33, IC50 (IgG)” value [3] was 1.52 nM, the “HEK-Blue, IL-36α, % inhibition” value [3] was 100% and the “HEK-Blue, IL-36α, IC50 (IgG)” value [3] was 0.477 nM. It also gave a Kd [4] of 0.141 nM, a koff [4] of 0.000414 s⁻¹ and a kon [4] of 2.94e+06 M⁻¹ s⁻¹. For the same binder, the Kd [5] was 0.0993 nM, the koff [5] was 0.000215 s⁻¹ and the kon [5] was 2.16e+06 M⁻¹ s⁻¹. It also gave a Kd [6] of 0.014 nM, a koff [6] of 2.69e-05 s⁻¹ and a kon [6] of 1.93e+06 M⁻¹ s⁻¹. The Kd [7] was 0.0244 nM, the koff [7] was 4.62e-05 s⁻¹ and the kon [7] was 1.89e+06 M⁻¹ s⁻¹.

B3: h11C5 variant K17/H3 IgG (YKS) (antibody, V domains shown)
VH: EVQLVESGGGLVQPGGSLRLSCAASGFTFSNYAMSWVRQAPGKGLEWVATSTEGGDYNYYLDDVKGRFTISRDNAKNSLYLQMNSLRAEDTAVYYCARDRWPYFFDYWGQGTLVTVSS
VL: DIQMTQSPSSLSASVGDRVTITCRASENIYSNLAWYQQKPGKSPKLLVYGYKNLADGVPSRFSGSGSGTDYTLTISSLQPEDFATYYCQHFKTTPRTFGGGTKVEIKR
notes: Human IgG1 N297G; also called 11C5-YKS
With B3 the “KD (6)/KD (7.4)” value [1] was 4.3 ratio, the “KD (7.4) ratio to YIS” value [1] was 1.1 ratio and the “koff (6) ratio to YIS” value [1] was 1.2 ratio. For the same binder, the “KD (6)/KD (7.4)” value [2] was 4.6 ratio, the “KD (7.4) ratio to YIS” value [2] was 1.6 ratio and the “koff (6) ratio to YIS” value [2] was 1.7 ratio. For the same binder, the “HEK-Blue, IL-1β, % inhibition” value [3] was 100%, the “HEK-Blue, IL-1β, IC50 (IgG)” value [3] was 0.429 nM and the “HEK-Blue, IL-33, % inhibition” value [3] was 87%. For the same binder, the “HEK-Blue, IL-33, IC50 (IgG)” value [3] was 2.5 nM, the “HEK-Blue, IL-36α, % inhibition” value [3] was 96% and the “HEK-Blue, IL-36α, IC50 (IgG)” value [3] was 0.418 nM. The Kd [4] was 0.0962 nM, the koff [4] was 0.000182 s⁻¹ and the kon [4] was 1.9e+06 M⁻¹ s⁻¹. It also gave a Kd [5] of 0.101 nM, a koff [5] of 0.000121 s⁻¹ and a kon [5] of 1.2e+06 M⁻¹ s⁻¹. The Kd [6] was 0.0226 nM, the koff [6] was 3.87e-05 s⁻¹ and the kon [6] was 1.71e+06 M⁻¹ s⁻¹. The Kd [7] was 0.0221 nM, the koff [7] was 4.51e-05 s⁻¹ and the kon [7] was 2.04e+06 M⁻¹ s⁻¹.
